Measured values published in publication PMC11392263.

Biological target: purified 206 kDa rFn (recombinant fibronectin) (UniProt P02751)
Experiment: SPR; Biacore T200, 25°C; rFn immobilised on CM5 chip at 8000 RU; rRlpA (0.016-0.500 μM) injected at 30 μl/min in 10 mM Hepes pH 7.4, 150 mM NaCl, 3 mM EDTA, 0.05% P20; 1:1 Langmuir model

purified 206 kDa rFn (recombinant fibronectin), sequence (P02751 32-2477): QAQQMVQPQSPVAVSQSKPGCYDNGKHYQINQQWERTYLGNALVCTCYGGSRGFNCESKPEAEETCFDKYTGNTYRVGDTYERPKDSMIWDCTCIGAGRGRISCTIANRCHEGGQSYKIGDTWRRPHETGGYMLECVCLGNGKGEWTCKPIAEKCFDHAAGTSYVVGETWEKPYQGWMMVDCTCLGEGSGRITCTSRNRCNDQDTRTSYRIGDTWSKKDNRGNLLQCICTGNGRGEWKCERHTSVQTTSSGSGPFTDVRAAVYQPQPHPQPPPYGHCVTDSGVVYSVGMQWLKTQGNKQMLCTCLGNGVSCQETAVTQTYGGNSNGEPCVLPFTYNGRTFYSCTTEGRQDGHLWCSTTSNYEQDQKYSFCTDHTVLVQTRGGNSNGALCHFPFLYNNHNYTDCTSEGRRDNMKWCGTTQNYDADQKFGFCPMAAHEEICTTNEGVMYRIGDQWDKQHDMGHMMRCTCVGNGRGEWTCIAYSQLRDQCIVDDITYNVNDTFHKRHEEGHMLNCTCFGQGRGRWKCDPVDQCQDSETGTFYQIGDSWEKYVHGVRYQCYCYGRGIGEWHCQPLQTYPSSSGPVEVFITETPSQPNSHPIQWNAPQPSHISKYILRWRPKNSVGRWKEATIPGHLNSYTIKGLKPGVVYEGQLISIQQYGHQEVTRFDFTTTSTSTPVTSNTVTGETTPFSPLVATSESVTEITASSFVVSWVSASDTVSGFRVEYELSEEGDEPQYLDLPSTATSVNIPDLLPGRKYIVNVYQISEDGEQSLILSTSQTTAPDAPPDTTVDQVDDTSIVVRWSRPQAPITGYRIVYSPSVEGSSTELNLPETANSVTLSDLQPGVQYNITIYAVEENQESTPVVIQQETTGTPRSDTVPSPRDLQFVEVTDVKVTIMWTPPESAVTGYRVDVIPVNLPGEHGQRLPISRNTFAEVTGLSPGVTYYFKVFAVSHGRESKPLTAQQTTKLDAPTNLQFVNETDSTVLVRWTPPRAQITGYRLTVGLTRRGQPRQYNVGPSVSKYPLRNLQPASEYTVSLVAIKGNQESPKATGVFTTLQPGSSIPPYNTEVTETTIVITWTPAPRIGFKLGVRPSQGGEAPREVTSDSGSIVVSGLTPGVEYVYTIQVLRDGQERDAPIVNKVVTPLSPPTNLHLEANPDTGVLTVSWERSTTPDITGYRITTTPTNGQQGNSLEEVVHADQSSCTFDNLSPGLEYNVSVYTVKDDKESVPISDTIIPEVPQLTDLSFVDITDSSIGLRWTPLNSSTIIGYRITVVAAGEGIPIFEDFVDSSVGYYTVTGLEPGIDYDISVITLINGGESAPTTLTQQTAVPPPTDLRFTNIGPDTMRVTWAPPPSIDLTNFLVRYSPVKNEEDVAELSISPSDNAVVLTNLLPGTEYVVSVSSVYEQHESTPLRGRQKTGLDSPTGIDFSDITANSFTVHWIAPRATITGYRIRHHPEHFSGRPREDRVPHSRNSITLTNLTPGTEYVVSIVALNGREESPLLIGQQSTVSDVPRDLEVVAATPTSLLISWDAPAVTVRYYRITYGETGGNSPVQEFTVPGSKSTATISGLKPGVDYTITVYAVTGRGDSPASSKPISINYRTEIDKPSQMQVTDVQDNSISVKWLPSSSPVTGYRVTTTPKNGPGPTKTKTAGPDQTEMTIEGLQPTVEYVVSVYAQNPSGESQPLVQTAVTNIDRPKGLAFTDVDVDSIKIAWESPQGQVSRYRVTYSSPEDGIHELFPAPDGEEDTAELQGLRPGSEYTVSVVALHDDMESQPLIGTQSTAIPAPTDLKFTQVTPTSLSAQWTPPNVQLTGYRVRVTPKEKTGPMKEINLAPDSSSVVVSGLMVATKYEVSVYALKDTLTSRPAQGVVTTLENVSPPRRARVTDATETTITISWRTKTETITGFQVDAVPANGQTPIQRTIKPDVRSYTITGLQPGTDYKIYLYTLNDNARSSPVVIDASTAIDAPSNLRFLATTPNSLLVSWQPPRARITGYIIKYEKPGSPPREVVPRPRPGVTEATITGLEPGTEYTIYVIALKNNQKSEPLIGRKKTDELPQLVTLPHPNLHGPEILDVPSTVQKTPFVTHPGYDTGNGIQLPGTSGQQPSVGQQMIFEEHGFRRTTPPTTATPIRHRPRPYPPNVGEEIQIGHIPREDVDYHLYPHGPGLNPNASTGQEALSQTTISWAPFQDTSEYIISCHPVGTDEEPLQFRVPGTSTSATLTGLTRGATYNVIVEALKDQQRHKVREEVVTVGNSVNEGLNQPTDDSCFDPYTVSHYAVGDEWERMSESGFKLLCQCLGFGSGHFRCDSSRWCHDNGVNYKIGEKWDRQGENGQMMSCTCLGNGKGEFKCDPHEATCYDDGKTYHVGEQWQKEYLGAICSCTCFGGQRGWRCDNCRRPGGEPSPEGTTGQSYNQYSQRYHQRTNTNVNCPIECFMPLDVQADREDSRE

“GST-tagged RlpA recombinant protein (rare lipoprotein A of Glaesserella parasuis serotype 4) (natural protein; other documents disagree on this pair)” was tested, and the Kd was 1.6 nM.
